{"source": "IntAct's records for PubMed 11729193", "parents": {"B1": {"name": "Cell death abnormality protein 1 (Caenorhabditis elegans), Q9XWD6 (parent)", "chain": "MRLILLVLLATWQVVVDTRAPTFPDKLTQQLQQQGTTEPQGDHVCTVKTIVDDYELKKVIHTVVYNDTEQCLNPLTGFQCTVEKRGQKASYQRQLVKKEKYVKQCCDGYYQTKDHFCLPDCNPPCKKGKCIEPGKCECDPGYGGKYCASSCSVGTWGLGCSKSCDCENGANCDPELGTCICTSGFQGERCEKPCPDNKWGPNCVKSCPCQNGGKCNKEGKCVCSDGWGGEFCLNKCEEGKFGAECKFECNCQNGATCDNTNGKCICKSGYHGALCENECSVGFFGSGCTQKCDCLNNQNCDSSSGECKCIGWTGKHCDIGCSRGRFGLQCKQNCTCPGLEFSDSNASCDAKTGQCQCESGYKGPKCDERKCDAEQYGADCSKTCTCVRENTLMCAPNTGFCRCKPGFYGDNCELACSKDSYGPNCEKQAMCDWNHASECNPETGSCVCKPGRTGKNCSEPCPLDFYGPNCAHQCQCNQRGVGCDGADGKCQCDRGWTGHRCEHHCPADTFGANCEKRCKCPKGIGCDPITGECTCPAGLQGANCDIGCPEGSYGPGCKLHCKCVNGKCDKETGECTCQPGFFGSDCSTTCSKGKYGESCELSCPCSDASCSKQTGKCLCPLGTKGVSCDQKCDPNTFGFLCQETVTPSPCASTDPKNGVCLSCPPGSSGIHCEHNCPAGSYGDGCQQVCSCADGHGCDPTTGECICEPGYHGKTCSEKCPDGKYGYGCALDCPKCASGSTCDHINGLCICPAGLEGALCTRPCSAGFWGNGCRQVCRCTSEYKQCNAQTGECSCPAGFQGDRCDKPCEDGYYGPDCIKKCKCQGTATSSCNRVSGACHCHPGFTGEFCHALCPESTFGLKCSKECPKDGCGDGYECDAAIGCCHVDQMSCGKAKQEFEALNGAGRSTGLTWFFVLLIVALCGGLGLIALFYRNKYQKEKDPDMPTVSFHKAPNNDEGREFQNPLYSRQSVFPDSDAFSSENNGNHQGGPPNGLLTLEEEELENKKIHGRSAAGRGNNDYASLDEVAGEGSSSSASASASRRGLNSSEQSRRPLLEEHDEEEFDEPHENSISPAHAVTTSNHNENPYADISSPDPVTQNSANKKRAQDNLYT", "partner": "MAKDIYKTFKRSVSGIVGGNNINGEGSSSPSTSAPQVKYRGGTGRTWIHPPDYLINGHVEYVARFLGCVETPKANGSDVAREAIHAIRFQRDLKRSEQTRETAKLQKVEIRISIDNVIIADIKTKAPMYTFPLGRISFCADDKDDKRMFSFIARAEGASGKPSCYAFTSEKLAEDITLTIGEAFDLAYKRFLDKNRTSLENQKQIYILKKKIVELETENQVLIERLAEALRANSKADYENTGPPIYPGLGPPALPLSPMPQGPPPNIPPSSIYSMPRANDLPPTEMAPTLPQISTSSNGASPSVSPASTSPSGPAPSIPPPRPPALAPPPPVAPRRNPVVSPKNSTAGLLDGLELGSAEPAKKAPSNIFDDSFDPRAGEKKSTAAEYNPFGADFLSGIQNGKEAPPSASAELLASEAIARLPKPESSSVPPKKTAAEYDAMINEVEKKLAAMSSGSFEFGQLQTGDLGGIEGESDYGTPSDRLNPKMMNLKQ"}, "B2": {"name": "Cell death abnormality protein 1 (Caenorhabditis elegans), Q9XWD6 (parent)", "chain": "B1 chain", "partner": "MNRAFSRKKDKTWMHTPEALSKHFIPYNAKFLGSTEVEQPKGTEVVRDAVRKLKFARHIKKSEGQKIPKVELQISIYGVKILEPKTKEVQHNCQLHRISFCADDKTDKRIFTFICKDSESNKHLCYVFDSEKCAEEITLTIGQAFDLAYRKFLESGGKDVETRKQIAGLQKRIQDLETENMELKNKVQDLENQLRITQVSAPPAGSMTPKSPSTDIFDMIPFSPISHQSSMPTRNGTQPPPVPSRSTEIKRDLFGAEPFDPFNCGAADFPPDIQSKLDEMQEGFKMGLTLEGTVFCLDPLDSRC"}}, "data": [{"variants_of": "B1", "details": "with ced6_caeel ced-6, O76337", "values": [{"variant": "N962A", "effect of a mutation on the interaction": "disrupting interaction strength"}]}, {"variants_of": "B2", "details": "with gulp1_human GULP1, Q9UBP9", "values": [{"variant": "N962A", "effect of a mutation on the interaction": "disrupting interaction strength"}]}]}
